In article PMC3462190, “A Peptidic Unconjugated GRP78/BiP Ligand Modulates the Unfolded Protein Response and Induces Prostate Cancer Cell Death” (PLoS ONE, 2012):

Experiments:
LNCaP xenograft tumor = test: LNCaP tumor xenograft study; assay type: in vivo, athymic nude mice; conditions: mean and SD of 4–10 tumors
Protocol: All animal experiments were performed according to European and German statutory regulations. For generation of xenograft models 5×10^6 LNCaP cells were resuspended in a solution of 50% Matrigel® (BD Bioscience, Heidelberg, Germany) in PBS or 5×10^6 22Rv.1 cells in 100 µl of PBS were subcutaneously injected into both flanks of 6–8 week-old athymic nude mice. Tumor size was measured with a caliper every week. Tumors derived from the […], […] Tumor size was assessed measuring three perpendicular diameters according to the formula: V = (1/6) [π] (d1d2d3), where π is a mathematic constant and d1, d2 and d3 represent the three spatial dimensions (width, depth and height). Mice were euthanized by cervical dislocation and the tumors removed for further analysis.

[1] = system: unfolded protein response in 22Rv.1 cells; test: UPR modulation, Western blot / PCR in 22Rv.1 cells; assay type: cell-based
Protocol: Unless otherwise stated, stable transfection was carried out in 22Rv.1 or BPH-1 cells with 10 µg of plasmid DNA using FuGene 6™ (Roche Diagnostics Mannheim, Germany) Stably transfected 22Rv.1 cells were selected with 0.8 mg/ml while BPH-1 cell clones were selected with 1.2 mg/ml G418. LNCaP, PC3, DU145, PNT-2 and RWPE-1 cell clones were selected with 1 mg/ml G418. Specific downregulation of GRP78 expression was achieved by transfecting siRNA-duplexes (GRP78∶5′-[…]-3′) twice in 72 h using HiPerfect™ (Qiagen Hilden, Germany). siRNA against GFP (5′-[…]-3′) was used as a control. Western blot analysis was performed as previously described.
Figure 3 The Bag-1 peptide modulates the UPR and sensitizes 22Rv.1 cells to ER-stress. A. UPR modulation upon Bag-1 peptide overexpression. Pooled clones of 22Rv.1 cells transfected with pcDNA3.1-HA-Bag-1 68 amino acid peptide or an empty expression vector were treated with 300 nM thapsigargin (TG) for the indicated time points. Cells were lysed and subjected to Western blot analysis using the indicated antibodies or phospho-specific antibodies. B. The Bag-1 peptide sensitizes 22Rv.1 cells to ER-stress induced apoptosis. Pooled clones of 22Rv.1 transfected with the Bag-1 peptide or the empty expression vector were treated with thapsigargin (TG) or glucose-starved (GS) for 24 h. The cells were lysed and subjected to Western blot analysis using anti-PARP and caspase 4 specific antibodies. Anti-HA antibody was used to detect the HA-Bag-1 peptide. […] C. […] Pooled clones of 22Rv.1 expressing HA-tagged Bag-1 peptide or an empty expression vector were transfected with GRP78/BiP siRNA or control GFP siRNA. The cells were lysed and Western blot was carried out with anti-PARP, anti-GRP78 and anti-HA antibodies. β-actin antibody was used to determine the level of protein loaded on the gel.
A. Real time PCR analysis of ATF6 gene expression following thapsigargin (300 nM) treatment for the indicated time points in 22Rv.1 cell clones with empty vector control (open bars) and peptide-expressing clones (filled bars). The RNA was extracted using PeqGold RNA pure (PeqLab, Germany) kit according to manufacturer’s instructions. For gene expression analysis, the following primers were used: Rib36 forward 5′-[…]-3′; reverse 5′-CCGGATATGAGGCAGCAG-3′; ATF6 forward 5′-[…]-3′; reverse 5′-[…]-3′. Each bar represents the mean of three independent experiments ± SEM. *p<0.05. B. Western blot analysis of ATF6 and its cleaved product (cATF6) in LNCaP cells stably expressing the empty vector control or the Bag-1 peptide. Anti-ATF6 specific antibody and an anti-HA specific antibody were used for the Western blot. β-actin antibody was used to determine equal loading control. Mouse monoclonal anti-ATF6 antibody was purchased from Imgenex (Hamburg, Germany), mouse monoclonal anti-HA antibody (HA.11 clone 16B12) was purchased from Covance (Munich, Germany) and anti-β-actin antibody was purchased from Abcam (Cambridge, UK). (TIF) Click here for additional data file.
Supplementary file pone.0045690.s004.tif: Figure S4 The Bag-1 peptide induces GCN2 phosphorylation. 22Rv.1 cells stably expressing the empty vector control or the Bag-1 peptide were treated with thapsigargin (300 nM) for 16 h and subjected to Western blot analysis using anti-phospho-GCN2, GCN2 and HA-specific antibodies. The filters used in this experiment for the GCN2 signals are the same filters used in Figure 3A. The HA-Bag-1 peptide and the β-actin signals are therefore identical to that of Figure 3A. (TIF) Click here for additional data file.

22Rv.1 xenograft tumor = test: TUNEL assay on xenograft tumor sections; assay type: in vivo, athymic nude mice; conditions: 22Rv.1 xenografts, clones P25, P29 and P42 vs V18, V19 and V33
Protocol: Tissues were fixed in 10% formalin for 16 h at room temperature, stored in ethanol (50%), paraffin embedded, and sectioned 5 µm thick with a Leica RM 2155 microtome. Apoptotic cells were detected via terminal deoxynucleotidyl transferase-mediated deoxyuridine-triphosphate-biotin nick end labeling (TUNEL) assay using the DNA fragmentation ApopTag® peroxidase in situ apoptosis detection kit (Millipore, Schwalbach, Germany).
Figure 4 The Bag-1 peptide inhibits prostate cancer cell growth in vivo. A. Stable clones of 22Rv.1 cells show reduced cell viability in vitro. Stable clones were seeded in a 96-well plate and the cell number in each well was estimated by measuring the ratio between the wavelength of excitation and emission 560/590 nm using the CellTiter-Blue™ proliferation assay. The bar charts represent the mean of at least four independent experiments ±SD (*p<0.05). B. Determination of the level of the Bag-1 expressed in the 22Rv.1 clones. Cellular extracts of 22v.1 stable clones were subjected to Western blot analysis. An anti-HA antibody was used to detect the peptide and an anti-β-actin antibody for equal loading control. […] Tumor size was measured once per week using a caliper and expressed as tumor volume in mm^3. […] Nuclei are stained blue-purple with hematoxylin while apoptotic cells detected with the TUNEL assay are stained brown. […]

GADD45 = test: Interaction with GADD45 (results not shown); assay type: binding
[2] = Bag-1 peptide expressing 22Rv.1 cells, thapsigargin 300 nM, 16 h
[3] = stable Bag-1 peptide expression, 22Rv.1, thapsigargin 300 nM
[4] = stable Bag-1 peptide expression, 22Rv.1, thapsigargin 300 nM, vs vector control

B1: Bag-1 peptide: internal sequence of 68 amino acids of Bag-1 (Bag1-L 202–269), HA-tagged, expressed from pcDNA3 (peptide)
chain: TPLSALGIQDGCRVMLIGKKNSPQEEVELKKLKHLEKSVEKIADQLEELNKELTGIQQGFLPKDLQAE
modifications: also: HA tag, end not given here
- Tumor weight, clone P12 (LNCaP xenograft tumor; LNCaP clone P12, termination 8 weeks, vector V82 0.65±0.29 g (8 weeks)): 0.04 ± 0.03 g
- Tumor weight, clone P35 (LNCaP xenograft tumor; LNCaP clone P35, termination 6 weeks, vector V69 0.22±0.03 g (6 weeks)): 0.05 ± 0.01 g
- CHOP expression ([1]; Bag-1 peptide expressing 22Rv.1 cells, thapsigargin 300 nM): increased expression of the pro-apoptotic factor CHOP
- GCN2 [1, 2]: upregulated in the peptide expressing cells
- GCN2 phosphorylation [1, 2]: enhanced phosphorylation of GCN2
- ATF4 activation [1, 3]: activation of the downstream target ATF4
- eIF2α phosphorylation [1, 3]: increase in eIF2α phosphorylation
- thapsigargin-induced expression of GRP78/BiP [1, 3]: inhibition of the thapsigargin-induced expression of GRP78/BiP
- cleaved ATF6 [1, 4]: significant reduction of cleaved ATF6
- phosphorylation of PERK and IRE1 [1, 4]: reduced ER stress-induced phosphorylation of PERK and IRE1
- TUNEL positive cells (apoptosis) (22Rv.1 xenograft tumor): strong signals indicative of massive apoptosis
- interaction with GADD45 (GADD45): interact with GADD45
